The DeepSol protein solubility set

Assay: soluble on expression in E. coli; label from the status in PepcDB or PDB records

| Sequence | soluble on expression in E. coli |
| --- | --- |
| MKVALYAGTYVKDKDGAVRSIYQLVSSMIKNGHQVVVWTPDFTPEANASVPVNLTPSVPIPLYPDYKLGFYNAVTERQLDEFAPDIVHISTPDIVGRKFLHYAKRKGLPVGSAYHTDFPSYLSYYRLGFAEPAVWRFLRKFYNACDVTLAPNESVRERLTGKGIERVELWSRGIDKELFDPSRRSAKLRRAWDAEGRTVIIYAGRFVLYKDIEVVMSLYQRFADEGLGDRVRFVMIGSGPEEAQMRARMPEAVFTGYLTGTTLPEAYASGDLFLFPSTTEAFCNVTLEALATGLPAVVSDVGGCQELVERSGGGFVAKAGDVGDFYACCTKLMQDGELFRSMRERGLAFAKDKSWAAVNGKLIDRYLELIAAKARRLEHHHHHH | not soluble |
| GSENIYTTLKFESMMQQRVIQIRSIPEEEYHELVSVQFKTDGGKYEKGEKQDLELSEKKTENGKDTESWGWNENQDSDEHDGWDEELDIDVDNVPIQVSVFVQSAAKVFTEFEQGCDTIGRSKVESIYLYKFNLLQTAFFAMVSEKVNDWTQLYKDVRYLYTENPKLLQLMELNSRRLDLNLNLIKKTIYKLVNDQLQELKDNERTPDWDITISSLLPYLKKTALPTLYKLEDNTILVALIRYIVHDLVIDNILHWRVISEKSSENLSEFIMLLLSGLEIPRLNLIETYRHSREKLGILSKILTAHLKDILEMFYEGEFFLFETDEIVQWIILLFADTPTRRDCIDEIRRVREEATD | soluble |
| MSLILCIDVGNSHIYGGVFDGDEIKLRFRHTSKVSTSDELGIFLKSVLRENNCSPETIRKIAICSVVPQVDYSLRSACVKYFSIDPFLLQAGVKTGLNIKYRNPVEVGADRIANAIAATHSFPNQNIIVIDFGTATTFCAISHKKAYLGGAILPGLRLSADALSKNTAKLPSVEIIKTESVVGRSTIESIQSGVYYGVLGACKELIQRIHHEAFNGDQILILATGGFASLFDKQGLYDHLVPDLVLQGIRLAAMMNTAEGHHHHHH | soluble |
| PLGSKDNRLLYPKTKIDWGPGENHICLKTPFKNFYVIELFHQAPTFDKTIPLFISDINNSPNLYGIYNYIADHLRHVVLVNNYPVNQINIFGKIVYEQYKEKEFNGVEESYVILVISDFIGIDSKIRVRLSQEQFKEVGLTLDKKNYGKIVELEGEIYNWYDSINVSKKPDRELKVSKITVLSHRPDGLHFEFEQWKKRMEFRKNNLVEPWVFIPTPQRE | soluble |
| MRFGEGSAKPIVSAATYGVGGNAFAQAIADPVSTVHSNKPELLVVDGYNVIHCTPRYEKLVYDHSDDPYSSDVHDMARTALINDVAAFAQGRYEAVIVFDGAGNISSERPNLPARGVRIEFSPTGVSADTVVQKLCIEAREEGRACSVVSSDGTIQAVVMGKGVTRISSRMLVDEIKQIDNDVHEAEEAPQIKMTLEHHHHHH | soluble |
| MGSDKIHHHHHHVLRAGLIHSLASRPQTWHSTAMDSDGYEIETHVGRRRAMRYHFWIDHEILRYPWTNFDEIAPGVFRSNHPTRARFKAYAERGIKTILTLRGGEDRPHHLLEVEACRDFGLTFECVPMSARHAPTVAQLSAVFEVLDRIERPFLIHCKSGADRTGLVSAIYLMHYENIPFDQARVQLSFRYIHIRRSQTGILDVFLEAFAARHAETGIGIRDWIMTEYDEAALTASFDQRQRNLWPWEGWRSGVS | not soluble |
| MEENMNIKQLKSKTMLGTVALVSAFSFASTNADANTYNYAVDVDYLASAEEIAQAHPASNTFPLGQCTWGVKEMATWAGNWWGNGGDWAASAASADYTVGTQPRVGSIVCWTDGSYGHVAYVTAVDPVTNKIQVLESNYAGHQWIDNYRGWFDPQNTVTPGVVSYIYPNLEHHHHHH | not soluble |
| MAQVKAEYDFQSQPNTGELSISAGEVLTVIRENIDGGWIEGRNVRGSVGLFPESYVTPYQASRPPPVLPPPLPPTSSGPPAASSRPFDDWGGASEVAAPPSYGAQHHHQPTPSVPEVTRSSYPSQNDDFDDEWTDEDDEQEPTRPNVQSSIGSNSRRDLSRSHSEHGGPDRGSNKVNKNINRFSNFVKSGVEAYVIGESKTTSQISERHEVVMNNGIIQWKPIQQYYTCIVDKPKKESKLKGLKSFIAYSITSSLTNIQRQVSRRYKHFDWLHEQLSAKYVLIPIPPLPEKQVAGRYEEDLIDHRKHILQLWVNKICRHPVLSQSEVWLHFISCTDEKDWKNGKRRAEKDEYIGGAFLNCITVPHQPLDPNNVDMQVERFQRSVKTSEEAMRVMQERMNMFQKVFAGPVKQNWQKMGSAFKTLQQSFEIDETVASRRLTEALAYTASEYHEIGQVFDAHTKNDMEPVLENLYSYKGTVQNVPDIIQVHKQAVQKFRDSEGRLSSAEAEKMKQRIDAMSYTVIAEVQHQTAEKVEDMKSTMGTYLKKQAMFYQEVATKLTSLAARYD | not soluble |
| MNTDELEHRRFDDLFSLVADPGFLLVAWDLVRGNKGASAAGVDGSTASSIALWVGVEKFLDMLRSQIKDRSFQPMPVRERMIPKAGGKLRRLGIATITDRVVQASLKLARFGEAAPGKRTGRKTGTAPRADFTPAIGCAFRYSPVLEHHHHHH | not soluble |
| MAELKALQNGSDIRGIALDTEEQTATLTATAVAEIAVGVVRWLQDKKQLPRKAQQRLTIAIGHDSRLTAEPIKQALVDTFLSLGIQVIDVGLATTPAMFMATQFPTLQCDAAIMITASHLPYYFNGLKFFTAEGGAEKEDIRYILSHTDPLTANENGTLMKQELLPIYAEHLVEKIRQGIHSPEEKPLQGFRIIVDAGNGAGGFFAEQVLQVLGADTTGSQFLEPDGHFPNHVPNPDNSEAMKSIQTAVLANQADLGIIFDTDVDRSAVVDQSGEVLNRNNLIAVLAAIVLKEAPGSYIVTNSPTSSHLKTFIEEKGGQQIRYISGYRNVINKMIELNHGGFQTPLAIETSGHAAFQENYNLDDGAYVVAKILMLLPELKQNNQTLGDLIATLKQPAETNEFRFKITAEDVTCYGQQVLRDFELFVENQADFAVDRENQEGVRGNVSGQYGSGWFLLRLSLHEPLLVLQVENDQSDKNACVIEKIATFLQKYEEIDSQQIEK | not soluble |
| MGSDKIHHHHHHMQGSAMLVHPQYDSNCPKTSVEVSEGFGGWFARICEDDQETFHQFRRERDAIAFADTQRMRLGLPCPPLERTASSGHKAIRKINQIADVLRTRGLGRFLQLSTLSLSEPIRSQRLRYRVASDARQALSKIKAASRHRGLFIDCGSNIGQAYKFFSRYYTPDYYDYVLVEPNKNCLEHLHSLRSENVAIEVVAKAASVKDGYAEFLGPPGRSDLTYEGCSIVPSHNGGLYPSQRFTPELVETFSLSQMIQAKRGLYEVIVLKLDVEGAEYEILDDLIRSGLHRDLHATYVEFHSLYMRNSEGRKTAVVERKIVDEFQQAGTHISRWI | not soluble |
| GPLDLSRDECKRILRKLELEAYAGVISALRAQGDLTKEKKDLLGELSKVLSISTERHRAEVRRAVNDERLTTIAHNMSGPNSSSEWSIEGRRLVPLMPRLVPQTAFTVTANAVANAAIQHNASLPVPAETGSK | soluble |
| PEKKKRKRGSRGGKKGRKSRIANIPNFEQSLKNLVVSEKILGYGSSGTVVFQGSFQGRPVAVKRMLIDFCDIALMEIKLLTESDDHPNVIRYYCSETTDRFLYIALELCNLNLQDLVESKNVSDENLKLQKEYNPISLLRQIASGVAHLHSLKIIHRDLKPQNILVSTSSRFTADQQTGAENLRILISDFGLCKKLDSGQSSFRTNLNNPSGTSGWRAPELLEESTKRRLTRSIDIFSMGCVFYYILSKGKHPFGDKYSRESNIIRGIFSLDEMKCLHDRSLIAEATDLISQMIDHDPLKRPTAMKVLRHPLFWPKSKKLEFLLKVSDRLEIENRDPPSALLMKFDAGSDFVIPSGDWTVKFDKTFMDNLERYRKYHSSKLMDLLRALRNKYHHFMDLPEDIAELMGPVPDGFYDYFTKRFPNLLIGVYMIVKENLSDDQILREFLYS | soluble |
| MATYNGQGFIHDQLDSIRNQTLRPDYVLMRDDGSTDDTVKVVEDYIKEHRLDGWSITSNDKNLGWRLNFRQLLIDVLAYEVDYVFFSDQDDTWYHHKNKMQVDIMEERQDINLLSADIDIKKLSEEATIPNNFKFNGEETISKYPLDFSYHNYRQGWTFCLRKSFVDQVMTFYSDNLILSHDNLFAGVSGVIGSGYNLNRSVGEHKRHAENASGNILNMSSSYERHLQELYFVLSYYIILVPFLEKSSSSQLREAKAYLDFNQQRYKNAQNKDFVAILKQMMTKKRFYDSFSNRIRDLVFLLKDIKRS | not soluble |
| MKAVIVYASVHHGNTKKIAEAMASVISADVIDVTRKIKPDLSGYDVIGFASGVYFHTFHERIKKCIEENLFSKGQKVFLVATCGLGYRDYTKGIKDILAKKHVSFIGNFQCRGWDTYGIFGKIGGIAKKHPNDRDLKEAQQFVLKTVCEKTIDDVALLEHHHHHH | soluble |
| MGSDKIHHHHHHMAYFAEIFQIPFEESWGYVTNGGTEGNMFGCYLARELFPDSTLYYSKDTHYSVGKIAKLLQMKSCVIESLDNGEIDYDDLIHKIKTNKESHPIIFANIGTTMTGAIDDIEMIQERLAQIGIMRRDYYIHADAALSGMILPFVDHPQAFSFAHGIDSICVSGHKMIGSPIPCGIVVAKRQNVERISVDVDYISTRDQTISGSRNGHTVLLMWAAIRSQTNLQRRHRIQHCLKMAQYAVDRFQAVGIPAWRNPNSITVVFPCPSEHIWKKHYLATSGNMAHLITTAHHRDTRQIDSLIDDVIFDLQGASKRTVGF | not soluble |
| MIIDDIINKIKSSNKIAISFHISPDGDSIGSSLGLLNGLRSIGKETYILSKEVVPESFEFLNFAREIDGNHFEVEDNTDLLITLDCGNIERLNFDTSDMISEDKKYTVINIDHHVTNDSFGDLNYINTKAASVGEIVYDLLSKMNISIDRTIAACLYTSILTDTGSFRFSNTTLNTHVVAGNLISTGLDFSEIHRKIFDNKKFEALKLQALVLNDMYLTFNNKLCVMKVTHDFIEKANAEDVDTGDLVSLGLKVNTAEVCMLLKEKDDCIKVSLRSKSYVDVRKIAEKFGGGGHIRAAGLSINSNILDAEKMILSEIQGELLEHHHHHH | not soluble |
| MSLRYLSESKVAIKHSNDLNGSNLNVALLMGAGNPSSAEDALYLKEYINSPDMLAVLDKQLDFRQAFGHSGWDFFYHLSDSATREQFLNYYRNRISVSYDDKTGLLTIGTQGFSPEFAQKFNQAVLKESERFINEEGHHHHHH | soluble |
| MSSQKSSHHKADSKMEQDNNRKAWISQPSGLNFVWGGDSRYWVIPKEPRMPAELKMVSWLEVTGSFDKIEPGKTYRIGFKISFKPDATGWDKAPVFMSAKIGKKGKTVWKRIKSVSQNFGILKGGSEPVNIPDESDGLFEILVSPTALNQDTKLQFGLYEVWTGRWKTGLLIHEAFVQEV | soluble |
| SDTNSNQGIAFVHGTRDHREDAYGGYWKIDFIQSISQTLAKPENHYVVHCDFSQYMWHEDAANCVANQLLEFINDKNVSSLTVYTHSDGANIMRWILSNPTYDGRYMTLKRKISQVIAIAPSSGGTPLADEVLNGGIFETSLAWLLGYLSDAVKQQRVGDMLIYNEELLLGSKGRPSLSIPFKVIVGTDVYASPFSTSSYCNGYMLNSGLKIAKLYLNQCADGFLDCESQAQAGEVWFYDIDKTDYNLPLSHNQSRHSCFGLDQI | not soluble |
| SQSPNPNNPAEYCSTIPPLQQAQASGALSSPPPTVMVPVGV | soluble |
| MAHHHHHHMAASYLVLQRYTDLINSGDLDAAFNYLSEDIIYVTWLGVIEGKDNVVTFLRDNMRFLHFAKHFNRWRQVQHCLDADLSRHCDDSDVGGSNLFDRDGYDRQGYASFERDGMIANIVKLSMQKTRVRETVVIRDNKVVLVTLMEQL | not soluble |
| HRSGGFPVYKNTKVTYFPNGQSKFEEMKKQLLKAEKFIFLEYFIIAEGLMWGEILSILEQKVQEGVEVRVMYDGMLELSTLSFDYAKRLEKIGIKAKVFSPITPFVSTYYNYRDHRKILVIDNKVAFNGGINLADEYINQIERFGYWKDTAVMLEGEGVASFTLMFLQMWSTTNKDYEFAPYLTQNFHEIVANGYVIPYSDSPLDHEKVGENV | not soluble |
